This is an account of results in patent publication US20040053872, “New sequences” (published 2004).

In data set [1] the target is T1, HIV-1 RT reference (HIV-1 subtype B (clone BH10), UniProt P03366;P03366 P03366:600-1159,P03366:600-1039). Put plainly: inhibition; second strand DNA synthesis, 33 C.
Data set [2] addresses T1, HIV-1 RT reference. As to the kind of experiment: competition; BIC50, RT binding to primer; 33 C.
The target in data set [3] is T1, HIV-1 RT reference. Put plainly: inhibition; RNA-dependent DNA polymerisation, 33 C. The following applies: hairpin.
The target in data set [4] is T1, HIV-1 RT reference. As to the kind of experiment: competition; BIC50, RT binding to template/primer; 33 C.
For data set [5], the target named is T1, HIV-1 RT reference. As to the kind of experiment: inhibition; RNA-dependent DNA polymerisation, preincubated 30 min, 33 C. The note with it: two stem-loops (D and anticodon).
Where [6] appears, read: two stem-loops (D and anticodon).

Take CAGACUUUUAAUCUG (ssRNA, PS all linkages) [compound 198 (15-mer anticodon stem-loop)]: the IC50 (in general, the midpoint of a concentration-inhibition curve) in data set [1] (hairpin) is 550 nM; in data set [2] (hairpin), 100 nM; in data set [3], 470 nM; in data set [4] (hairpin), 900 nM.
In the case of GCUCAGUCGGUAGAGCAUCAGACUUUUAAUCUGAG (ssRNA) [compound 199], the IC50 was determined as 40 nM in data set [1] (setting [6]), 2 nM in data set [2] (setting [6]), 7 nM in data set [4] (setting [6]) and 6.6 nM in data set [5].
